Experimental findings from patent US20060009452A1, “Therapeutic targeting of PARC/CCL18 and its signaling in pulmonary fibrosis” (priority 2004, published 2006) are described below.

Type in all cases: cell-based, human
The test system of one assay is TGF-β1. Briefly: TGF-β1 ELISA of fibroblast supernatants and lysates. The settings on record: 300 ng/ml rhPARC. From the text:
Transforming Growth Factor-β ELISA Assays. ELISA kits for TGF-β1 and TGF-β2 were purchased from R&D Systems. ELISA for TGF-β3 was custom developed using a DuoSet ELISA Development System (R&D Systems) following manufacturer's recommendations. […] Recombinant human TGF-β1, TGF-β2, and TGF-β3 from R&D Systems were used in serial dilutions for calibration of the assays. The minimal detection level in these assays was 10-20 pg/ml of TGF-β. Low serum cell culture medium containing 0.5% dialyzed fetal bovine serum had no detectable TGF-β and was used as a negative control in these assays. Each of LF1-LF4 cultures was tested in duplicates for each time point in at least three independent experiments.
Transforming Growth Factor-β1 ELISA Assays. ELISA kits for transforming growth factor (TGF)-β1 were purchased from R&D Systems (Minneapolis, Minn.), and fibroblast culture supernatants and whole cell lysates after 3, 6, 12, 24, 48, and 72 h activation with rhPARC were assayed in duplicates for total TGF-β1, according to the manufacturer's instructions. Low-serum cell culture medium containing 0.5% dialyzed fetal bovine serum had no detectable TGF-β1 and was used as a negative control in these assays.
ELISA kits for TGF-β1, -β2, and -β3 were purchased from R&D Systems and assays performed following manufacturer's recommendations. […] The minimal detection level in these assays was 10-20 pg/ml of TGF-β. […]

A further assay relates to Sp1. The experiment in a line: TranSignal protein/DNA arrays of nuclear lysates. To be noted: LF1 and LF2.
The subject of another assay is lung fibroblasts. The experiment in a line: Western blotting of fibroblast culture supernatants for collagen type I / α1(I). Here is the method:
Collagen Production Assays. Collagen was quantified as described elsewhere (Atamas S P et al.). Briefly, fibroblasts were cultured with β-aminopropionitrile (Sigma) to prevent collagen cross-linking, and Western blotting assays for collagen were performed using rabbit affinity purified anti-collagen type I antibody (Rockland, Gilbertsville, Pa.). Before electrophoresis, samples were reduced and denatured by boiling in Laemmli buffer containing β-mercaptoethanol. Human purified collagen type I (Southern Biotech, Birmingham, Ala.) was used as a positive control in these assays. The identity of collagen bands was confirmed by sensitivity to pepsin and collagenase (both from Sigma) digestion, as described (Atamas S P et al.). Under these conditions, pro-collagen appears as a single or double band around 175 kDa (Gaidarova S et al., Stefanovic B et al.). Images were collected using a Storm densitometer and band densities analyzed with ImageQuant software (Molecular Dynamics, Sunnyvale, Calif.).
Western blotting assays for collagen were performed using rabbit affinity purified anti-collagen type I antibody (Rockland, Gilbertsville, Pa.). Before electrophoresis, samples were reduced and denatured by boiling in Laemmli buffer containing β-mercaptoethanol. Human purified collagen type I (Southern Biotech, Birmingham, Ala.) was used as a positive control in these assays.
Collagen was quantified by Western blotting and the identity of collagen bands was confirmed by sensitivity to pepsin and collagenase digestion as described elsewhere in Atamas et al. (Am. J. Respir. Cell. Mol., 29:743-749 (2003)). In these assays, pro-collagen appears as a single or double band with a molecular weight of approximately 175 kDa (4,27,28).
In general terms: A western blot detects proteins with antibodies after separation by electrophoresis.

Assay [1] concerns lung and dermal fibroblast lines. Briefly: CellTiter AQueous 96 fibroblast proliferation assay. The settings on record: for maximum increase in fibroblast proliferation over non-stimulated control: Days 7 and 8, rhPARC 1-3,000 ng/ml. As to the method:
Cell Proliferation Assays. For CellTiter AQueous 96 Non-Radioactive Cell Proliferation Assay (Promega, Madison, Wis.), fibroblasts were plated in low-serum medium at 2×10^3 cells/well in 96-well flat-bottom tissue culture plates (Costar) in 0.2-ml cultures and stimulated with increasing concentrations of rhPARC in quadruplicates. Low-serum tissue culture medium alone was the negative control. The Cell-Titer proliferation assay was performed according to the manufacturer's instructions, after the fibroblasts were incubated with test substances for 3-8 d. Data were expressed as mean OD490±SD of quadruplicate cultures and analyzed using one-way ANOVA with post hoc testing.

B1: rhPARC: Recombinant human pulmonary and activation-regulated chemokine (CC chemokine CCL18), purchased from R&D Systems and Cell Sciences (protein)
chain: AQVGTNKELCCLVYTSWQIPQKFIVDYSETSPQCPKPGVILLTKRGRQICADPNKKWVQKYISDLKLNA
Take B1: in the assay with TGF-β1 (3-72 h, lung and dermal fibroblast lines), the “maximal increase in production of TGFβ1 by fibroblasts” value amounted to 1.3±0.2 fold. Further, the “total TGF-β1 in culture supernatants after stimulation” value in the assay on TGF-β1 (primary lung fibroblast cultures) is listed as “decreased”. Besides, the “DNA binding by Sp1 (protein/DNA arrays)” value in the assay on Sp1 is given as “consistently increased”. Also, the “concentration causing detectable stimulation of collagen production” value in the assay with lung fibroblasts was “below 300 ng/ml”. Also, the “collagen production, dose-response” value with lung fibroblasts (LF1 and LF4, 30 ng/ml and 300 ng/ml rhPARC) is “significant increase in collagen production”. Also, the “increase in collagen production over control non-treated cells” value with lung fibroblasts (LF1 and LF4, 3, 6 and 12 h of activation) is at most 1.2±0.2 fold. Also, the “combined density of procollagen bands, fold higher than non-stimulated control” value in the assay on lung fibroblasts (LF2 cells, 300 ng/ml rhPARC, 48 h) stood at 4.2 fold; in the assay with lung fibroblasts (LF4 cells, 100 ng/ml rhPARC, 48 h), 3.6 fold. The “increase in densities of the collagen bands relative to the control culture” value was found to be 4.4 in the assay with lung fibroblasts (LF4, 300 ng/ml rhPARC, 24 h); 3.2 in the assay with lung fibroblasts (LF4, 300 ng/ml rhPARC, 48 h); 1.3 in the assay on lung fibroblasts (LF4, 300 ng/ml rhPARC, 72 h, bands saturated). Moreover, in the assay on lung fibroblasts (LF4, 300 ng/ml rhPARC, 72 h), the “increase in collagen production, densitometry at shorter non-saturating exposure” value is given as 3.4 fold. For the same molecule, the “maximum increase in fibroblast proliferation over non-stimulated control” value in assay [1] (dermal lines) is recorded as 45-50%; in assay [1] (lung lines) it was 20-25%. For the same molecule, the “increase in fibroblast proliferation” value in assay [1] (summary statement) was 25-50%.
